The values that follow are results of earlier work, collected in article PMC6943629, “Binding of Gold(III) Porphyrin by the Pro-metastatic Regulatory Protein Human Galectin-3” (Molecules, 2019).

The Kd is the concentration at which binding is half-saturated.

Data set [1] addresses asialofetuin (Bos taurus) (UniProt P12763).
Data set [2] has as its target MUC18 (Homo sapiens) (UniProt P43121). Description: bio-layer interferometry. On the technique in general: In BLI a coated tip is dipped into the sample, and binding shifts an interference pattern.

Sequence of galectin-3 (P17931 2-250): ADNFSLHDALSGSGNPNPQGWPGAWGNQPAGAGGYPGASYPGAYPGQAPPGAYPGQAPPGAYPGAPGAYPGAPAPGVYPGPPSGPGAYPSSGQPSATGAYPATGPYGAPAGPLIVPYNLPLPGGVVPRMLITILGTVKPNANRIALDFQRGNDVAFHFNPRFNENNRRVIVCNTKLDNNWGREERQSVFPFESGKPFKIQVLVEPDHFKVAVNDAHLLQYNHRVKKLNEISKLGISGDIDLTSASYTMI
Sequence of MUC18 (Homo sapiens) (P43121 24-646): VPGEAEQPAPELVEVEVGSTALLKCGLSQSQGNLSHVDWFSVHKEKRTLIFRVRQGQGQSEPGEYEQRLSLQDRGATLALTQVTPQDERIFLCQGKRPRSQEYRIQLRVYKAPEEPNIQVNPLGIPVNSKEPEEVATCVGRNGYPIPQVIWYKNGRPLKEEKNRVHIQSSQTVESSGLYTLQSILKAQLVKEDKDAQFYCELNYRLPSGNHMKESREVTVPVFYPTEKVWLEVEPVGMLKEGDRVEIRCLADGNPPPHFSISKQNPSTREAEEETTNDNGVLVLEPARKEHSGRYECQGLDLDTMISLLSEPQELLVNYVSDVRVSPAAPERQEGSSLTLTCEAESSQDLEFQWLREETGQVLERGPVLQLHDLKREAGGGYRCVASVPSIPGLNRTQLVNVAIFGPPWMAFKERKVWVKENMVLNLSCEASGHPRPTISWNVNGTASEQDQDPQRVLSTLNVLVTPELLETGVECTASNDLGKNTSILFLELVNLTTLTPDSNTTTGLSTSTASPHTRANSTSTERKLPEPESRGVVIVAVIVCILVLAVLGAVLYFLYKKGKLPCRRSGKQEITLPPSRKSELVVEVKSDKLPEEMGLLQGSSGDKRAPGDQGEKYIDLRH
Sequence of asialofetuin (Bos taurus) (P12763 19-359): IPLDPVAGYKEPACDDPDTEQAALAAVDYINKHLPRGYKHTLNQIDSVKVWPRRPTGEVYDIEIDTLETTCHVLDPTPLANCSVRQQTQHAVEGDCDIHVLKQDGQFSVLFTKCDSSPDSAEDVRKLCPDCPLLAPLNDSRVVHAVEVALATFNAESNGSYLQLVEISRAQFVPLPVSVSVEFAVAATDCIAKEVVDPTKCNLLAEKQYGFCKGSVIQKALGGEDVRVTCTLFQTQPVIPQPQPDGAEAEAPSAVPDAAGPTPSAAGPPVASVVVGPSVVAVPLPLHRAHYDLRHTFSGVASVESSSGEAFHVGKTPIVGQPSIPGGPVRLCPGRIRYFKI

galectin-3 (from UniProt P17931): the dissociation constant (Kd) was 0.72 µM in data set [1] and 0.43 µM in data set [2].
